System: mutant form of α-Gal A expressed in HEK-293 cells
Assay: HEK assay (GLP HEK / Migalastat Amenability Assay): α-Gal A activity in lysates of transiently transfected HEK-293 cells incubated with or without 10 μM migalastat
Format: cell-based, human
Conditions: for Absolute increase (% WT): 10 μM migalastat versus baseline; for Relative increase: 10 μM migalastat α-Gal A activity relative to baseline; for 10 μM migalastat α-Gal A activity (% WT): 5 days; for 10 μM migalastat α-Gal A activity (% WT) / Baseline α-Gal A activity (% WT): percentage of baseline wild-type α-Gal A activity; for 10 μM migalastat α-Gal A activity (% WT) / Baseline α-Gal A activity (% WT) / Baseline α-Gal A activity / 10 μM migalastat α-Gal A activity: mean ± SEM; for Baseline α-Gal A activity (% WT): absence of migalastat; for Baseline α-Gal A activity / 10 μM migalastat α-Gal A activity: lysates of HEK-293 cells transfected with the mutant form; for Baseline α-Gal A activity: incubated 5 days in the absence of migalastat; for 10 μM migalastat α-Gal A activity: incubated 5 days with 10 μM migalastat
Method in brief: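 HEK-293 cells transiently transfected with mutant α-Gal A and incubated with or without 10 μM migalastat; lysate activity given as nmol free 4-MU released per mg protein per hour. Values are mean±SEM.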

Molecule	Absolute increase (% WT)	Relative increase	10 μM migalastat α-Gal A activity (% WT)	Baseline α-Gal A activity (% WT)	Baseline α-Gal A activity [nmol/mg/h]	10 μM migalastat α-Gal A activity [nmol/mg/h]
Y173F (protein) MQLRNPELHLGCALALRFLALVSWDIPGARALDNGLARTPTMGWLHWERFMCNLDCQEEPDSCISEKLFMEMAELMVSEGWKDAGYEYLCIDDCWMAPQRDSEGRLQADPQRFPHGIRQLANYVHSKGLKLGIYADVGNKTCAGFPGSFGYYDIDAQTFADWGVDLLKFDGCFCDSLENLADGYKHMSLALNRTGRSIVYSCEWPLYMWPFQKPNYTEIRQYCNHWRNFADIDDSWKSIKSILDWTSFNQERIVDVAGPGGWNDPDMLVIGNFGLSWNQQVTQMALWAIMAAPLFMSNDLRHISPQAKALLQDKDVIAINQDPLGKQGYQLRQGDNFEVWERPLSGLAWAVAMINRQEIGGPRSYTIAVASLGKGVACNPACFITQLLPVKRKLGFYEWTSRLRSHINPTGTVLLQLENTMQMSLKDLL	21.2	1.3	97.7 ± 4.7	76.5 ± 4.2	26479 ± 1523	33158 ± 657
D175V (protein) MQLRNPELHLGCALALRFLALVSWDIPGARALDNGLARTPTMGWLHWERFMCNLDCQEEPDSCISEKLFMEMAELMVSEGWKDAGYEYLCIDDCWMAPQRDSEGRLQADPQRFPHGIRQLANYVHSKGLKLGIYADVGNKTCAGFPGSFGYYDIDAQTFADWGVDLLKFDGCYCVSLENLADGYKHMSLALNRTGRSIVYSCEWPLYMWPFQKPNYTEIRQYCNHWRNFADIDDSWKSIKSILDWTSFNQERIVDVAGPGGWNDPDMLVIGNFGLSWNQQVTQMALWAIMAAPLFMSNDLRHISPQAKALLQDKDVIAINQDPLGKQGYQLRQGDNFEVWERPLSGLAWAVAMINRQEIGGPRSYTIAVASLGKGVACNPACFITQLLPVKRKLGFYEWTSRLRSHINPTGTVLLQLENTMQMSLKDLL	19.7	1.6	53.5 ± 2.5	33.7 ± 2.2	10430 ± 915	16384 ± 1039
S176C (protein) MQLRNPELHLGCALALRFLALVSWDIPGARALDNGLARTPTMGWLHWERFMCNLDCQEEPDSCISEKLFMEMAELMVSEGWKDAGYEYLCIDDCWMAPQRDSEGRLQADPQRFPHGIRQLANYVHSKGLKLGIYADVGNKTCAGFPGSFGYYDIDAQTFADWGVDLLKFDGCYCDCLENLADGYKHMSLALNRTGRSIVYSCEWPLYMWPFQKPNYTEIRQYCNHWRNFADIDDSWKSIKSILDWTSFNQERIVDVAGPGGWNDPDMLVIGNFGLSWNQQVTQMALWAIMAAPLFMSNDLRHISPQAKALLQDKDVIAINQDPLGKQGYQLRQGDNFEVWERPLSGLAWAVAMINRQEIGGPRSYTIAVASLGKGVACNPACFITQLLPVKRKLGFYEWTSRLRSHINPTGTVLLQLENTMQMSLKDLL	16.2	1.2	79.5 ± 5.1	63.3 ± 3.9	20097 ± 1126	24777 ± 960
D175Y (protein) MQLRNPELHLGCALALRFLALVSWDIPGARALDNGLARTPTMGWLHWERFMCNLDCQEEPDSCISEKLFMEMAELMVSEGWKDAGYEYLCIDDCWMAPQRDSEGRLQADPQRFPHGIRQLANYVHSKGLKLGIYADVGNKTCAGFPGSFGYYDIDAQTFADWGVDLLKFDGCYCYSLENLADGYKHMSLALNRTGRSIVYSCEWPLYMWPFQKPNYTEIRQYCNHWRNFADIDDSWKSIKSILDWTSFNQERIVDVAGPGGWNDPDMLVIGNFGLSWNQQVTQMALWAIMAAPLFMSNDLRHISPQAKALLQDKDVIAINQDPLGKQGYQLRQGDNFEVWERPLSGLAWAVAMINRQEIGGPRSYTIAVASLGKGVACNPACFITQLLPVKRKLGFYEWTSRLRSHINPTGTVLLQLENTMQMSLKDLL	22.9	1.8	52.3 ± 1.9	29.4 ± 2.4	8991 ± 838	15923 ± 778
Y173S (protein) MQLRNPELHLGCALALRFLALVSWDIPGARALDNGLARTPTMGWLHWERFMCNLDCQEEPDSCISEKLFMEMAELMVSEGWKDAGYEYLCIDDCWMAPQRDSEGRLQADPQRFPHGIRQLANYVHSKGLKLGIYADVGNKTCAGFPGSFGYYDIDAQTFADWGVDLLKFDGCSCDSLENLADGYKHMSLALNRTGRSIVYSCEWPLYMWPFQKPNYTEIRQYCNHWRNFADIDDSWKSIKSILDWTSFNQERIVDVAGPGGWNDPDMLVIGNFGLSWNQQVTQMALWAIMAAPLFMSNDLRHISPQAKALLQDKDVIAINQDPLGKQGYQLRQGDNFEVWERPLSGLAWAVAMINRQEIGGPRSYTIAVASLGKGVACNPACFITQLLPVKRKLGFYEWTSRLRSHINPTGTVLLQLENTMQMSLKDLL	14.8	1.2	76.2 ± 3.3	61.4 ± 3.3	21751 ± 1625	26270 ± 994
D175H (protein) MQLRNPELHLGCALALRFLALVSWDIPGARALDNGLARTPTMGWLHWERFMCNLDCQEEPDSCISEKLFMEMAELMVSEGWKDAGYEYLCIDDCWMAPQRDSEGRLQADPQRFPHGIRQLANYVHSKGLKLGIYADVGNKTCAGFPGSFGYYDIDAQTFADWGVDLLKFDGCYCHSLENLADGYKHMSLALNRTGRSIVYSCEWPLYMWPFQKPNYTEIRQYCNHWRNFADIDDSWKSIKSILDWTSFNQERIVDVAGPGGWNDPDMLVIGNFGLSWNQQVTQMALWAIMAAPLFMSNDLRHISPQAKALLQDKDVIAINQDPLGKQGYQLRQGDNFEVWERPLSGLAWAVAMINRQEIGGPRSYTIAVASLGKGVACNPACFITQLLPVKRKLGFYEWTSRLRSHINPTGTVLLQLENTMQMSLKDLL	26.4	1.4	87.1 ± 3.9	60.7 ± 3.4	18529 ± 1174	26201 ± 994
S176R (protein) MQLRNPELHLGCALALRFLALVSWDIPGARALDNGLARTPTMGWLHWERFMCNLDCQEEPDSCISEKLFMEMAELMVSEGWKDAGYEYLCIDDCWMAPQRDSEGRLQADPQRFPHGIRQLANYVHSKGLKLGIYADVGNKTCAGFPGSFGYYDIDAQTFADWGVDLLKFDGCYCDRLENLADGYKHMSLALNRTGRSIVYSCEWPLYMWPFQKPNYTEIRQYCNHWRNFADIDDSWKSIKSILDWTSFNQERIVDVAGPGGWNDPDMLVIGNFGLSWNQQVTQMALWAIMAAPLFMSNDLRHISPQAKALLQDKDVIAINQDPLGKQGYQLRQGDNFEVWERPLSGLAWAVAMINRQEIGGPRSYTIAVASLGKGVACNPACFITQLLPVKRKLGFYEWTSRLRSHINPTGTVLLQLENTMQMSLKDLL	22.0	1.3	88.3 ± 3.3	66.3 ± 2	22675 ± 886	30159 ± 1226
D175G (protein) MQLRNPELHLGCALALRFLALVSWDIPGARALDNGLARTPTMGWLHWERFMCNLDCQEEPDSCISEKLFMEMAELMVSEGWKDAGYEYLCIDDCWMAPQRDSEGRLQADPQRFPHGIRQLANYVHSKGLKLGIYADVGNKTCAGFPGSFGYYDIDAQTFADWGVDLLKFDGCYCGSLENLADGYKHMSLALNRTGRSIVYSCEWPLYMWPFQKPNYTEIRQYCNHWRNFADIDDSWKSIKSILDWTSFNQERIVDVAGPGGWNDPDMLVIGNFGLSWNQQVTQMALWAIMAAPLFMSNDLRHISPQAKALLQDKDVIAINQDPLGKQGYQLRQGDNFEVWERPLSGLAWAVAMINRQEIGGPRSYTIAVASLGKGVACNPACFITQLLPVKRKLGFYEWTSRLRSHINPTGTVLLQLENTMQMSLKDLL	18.1	1.2	92.8 ± 6.2	74.7 ± 6.7	23065 ± 2315	28273 ± 1968
Y173H (protein) MQLRNPELHLGCALALRFLALVSWDIPGARALDNGLARTPTMGWLHWERFMCNLDCQEEPDSCISEKLFMEMAELMVSEGWKDAGYEYLCIDDCWMAPQRDSEGRLQADPQRFPHGIRQLANYVHSKGLKLGIYADVGNKTCAGFPGSFGYYDIDAQTFADWGVDLLKFDGCHCDSLENLADGYKHMSLALNRTGRSIVYSCEWPLYMWPFQKPNYTEIRQYCNHWRNFADIDDSWKSIKSILDWTSFNQERIVDVAGPGGWNDPDMLVIGNFGLSWNQQVTQMALWAIMAAPLFMSNDLRHISPQAKALLQDKDVIAINQDPLGKQGYQLRQGDNFEVWERPLSGLAWAVAMINRQEIGGPRSYTIAVASLGKGVACNPACFITQLLPVKRKLGFYEWTSRLRSHINPTGTVLLQLENTMQMSLKDLL	18.3	1.3	80.2 ± 4.6	61.9 ± 3.4	21234 ± 879	27455 ± 1147

Source: patent publication US11833164B2, “Methods of treating Fabry disease in patients having a mutation in the GLA gene” (Amicus Therapeutics, Inc., priority 2019, dated 2023)
